# Tests used:
# [1] = target: human/mouse 5T4 chimera E6 (human/mouse chimera) (UniProt Q13641); test: flow cytometry, chimera-transfected cells
# [2] = target: human/mouse 5T4 chimera E7 (human/mouse chimera) (UniProt Q13641); test: flow cytometry, chimera-transfected cells
# [3] = target: human/mouse 5T4 chimera E2 (human/mouse chimera) (UniProt Q13641); test: flow cytometry, chimera-transfected cells
# [4] = target: human/mouse 5T4 chimera E4 (human/mouse chimera) (UniProt Q13641); test: flow cytometry, chimera-transfected cells
# [5] = target: human/mouse 5T4 chimera E3 (human/mouse chimera) (UniProt Q13641); test: flow cytometry, chimera-transfected cells
# [6] = target: human/mouse 5T4 chimera E1 (human/mouse chimera) (UniProt Q13641); test: flow cytometry, chimera-transfected cells
# [7] = target: human/mouse 5T4 chimera E5 (human/mouse chimera) (UniProt Q13641); test: flow cytometry, chimera-transfected cells
# [8] = target: human/mouse CD137 chimera 1551 (human/mouse chimera) (UniProt Q07011); test: flow cytometry, transfected 293-F cells
# [9] = target: human/mouse CD137 chimera 1550 (human/mouse chimera) (UniProt Q07011); test: flow cytometry, transfected 293-F cells
# [10] = target: human/mouse CD137 chimera 1552 (human/mouse chimera) (UniProt Q07011); test: flow cytometry, transfected 293-F cells
# [11] = target: human/mouse CD137 chimera 1554 (human/mouse chimera) (UniProt Q07011); test: flow cytometry, transfected 293-F cells
# [12] = target: human/mouse CD137 chimera 1555 (human/mouse chimera) (UniProt Q07011); test: flow cytometry, transfected 293-F cells
# [13] = target: human/mouse CD137 chimera 1553 (human/mouse chimera) (UniProt Q07011); test: flow cytometry, transfected 293-F cells
# [14] = target: human/mouse CD137 chimera 1551 (human/mouse chimera) (UniProt Q07011); test: flow cytometry, transfected 293-F cells, Exp 1
# [15] = target: human/mouse CD137 chimera 1550 (human/mouse chimera) (UniProt Q07011); test: flow cytometry, transfected 293-F cells, Exp 1
# [16] = target: human/mouse CD137 chimera 1552 (human/mouse chimera) (UniProt Q07011); test: flow cytometry, transfected 293-F cells, Exp 1
# [17] = target: human/mouse CD137 chimera 1554 (human/mouse chimera) (UniProt Q07011); test: flow cytometry, transfected 293-F cells, Exp 1
# [18] = target: human/mouse CD137 chimera 1555 (human/mouse chimera) (UniProt Q07011); test: flow cytometry, transfected 293-F cells, Exp 1
# [19] = target: human/mouse CD137 chimera 1553 (human/mouse chimera) (UniProt Q07011); test: flow cytometry, transfected 293-F cells, Exp 1
# [20] = target: human/mouse CD137 chimera 1551 (human/mouse chimera) (UniProt Q07011); test: flow cytometry, transfected 293-F cells, Exp 2
# [21] = target: human/mouse CD137 chimera 1550 (human/mouse chimera) (UniProt Q07011); test: flow cytometry, transfected 293-F cells, Exp 2
# [22] = target: human/mouse CD137 chimera 1552 (human/mouse chimera) (UniProt Q07011); test: flow cytometry, transfected 293-F cells, Exp 2
# [23] = target: human/mouse CD137 chimera 1554 (human/mouse chimera) (UniProt Q07011); test: flow cytometry, transfected 293-F cells, Exp 2
# [24] = target: human/mouse CD137 chimera 1555 (human/mouse chimera) (UniProt Q07011); test: flow cytometry, transfected 293-F cells, Exp 2
# [25] = target: human/mouse CD137 chimera 1553 (human/mouse chimera) (UniProt Q07011); test: flow cytometry, transfected 293-F cells, Exp 2
Binder,relative MFI normalized to full-length human CD137 [8],relative MFI normalized to full-length human CD137 [9],relative MFI normalized to full-length human CD137 [10],relative MFI normalized to full-length human CD137 [11],relative MFI normalized to full-length human CD137 [12],relative MFI normalized to full-length human CD137 [13],other results
"1206/1207 (antibody, V domains shown) VH: EVQLLESGGGLVQPGGSLRLSCAASGFTFSGSSMSWVRQAPGKGLEWVSSIYYSGSGTYYADSVKGRFTISRDNSKNTLYLQMNSLRAEDTAVYYCARYGRNVHPYNLDYWGQGTLVTVSS VL: DIQMTQSPSSLSASVGDRVTITCRASQSISSYLNWYQQKPGKAPKLLIYAASSLQSGVPSRFSGSGSGTDFTLTISSLQPEDFATYYCQQGYYYLPTFGQGTKLEIK",,,,,,,normalized % positive cells [1]: 0.94; normalized % positive cells [2]: 0.94; normalized % positive cells [3]: 0.74; normalized % positive cells [4]: 0.52; normalized % positive cells [5]: 0.25; normalized % positive cells [6]: 0.96; normalized % positive cells [7]: 0.9
"1212/1213 (antibody, V domains shown) VH: EVQLLESGGGLVQPGGSLRLSCAASGFTFSSYAMSWVRQAPGKGLEWVSYISSYGGYTSYADSVKGRFTISRDNSKNTLYLQMNSLRAEDTAVYYCARYHSGVLDYWGQGTLVTVSS VL: DIQMTQSPSSLSASVGDRVTITCRASQSISSYLNWYQQKPGKAPKLLIYAASSLQSGVPSRFSGSGSGTDFTLTISSLQPEDFATYYCQQYYYHYLLTFGQGTKLEIK",,,,,,,normalized % positive cells [1]: 0.03; normalized % positive cells [2]: 0.88; normalized % positive cells [3]: 0.9; normalized % positive cells [4]: 1; normalized % positive cells [5]: 0.93; normalized % positive cells [6]: 0.89; normalized % positive cells [7]: 0.84
"1618/1619 (antibody, V domains shown) VH: EVQLLESGGGLVQPGGSLRLSCAASGFTFSYGSMYWVRQAPGKGLEWVSSISSGSGSTYYADSVKGRFTISRDNSKNTLYLQMNSLRAEDTAVYYCARSSYYGSYYSIDYWGQGTLVTVSS VL: DIQMTQSPSSLSASVGDRVTITCRASQSISSYLNWYQQKPGKAPKLLIYAASSLQSGVPSRFSGSGSGTDFTLTISSLQPEDFATYYCQQYYDNLPTFGQGTKLEIK",0.67,0.11,1.2,1.01,0.12,1.24,
"1200/1201 (antibody, V domains shown) VH: EVQLLESGGGLVQPGGSLRLSCAASGFTFSSYAMSWVRQAPGKGLEWVSGISGGGGGTYYADSVKGRFTISRDNSKNTLYLQMNSLRAEDTAVYYCARDVAYFDYWGQGTLVTVSS VL: DIQMTQSPSSLSASVGDRVTITCRASQSISSYLNWYQQKPGKAPKLLIYAASSLQSGVPSRFSGSGSGTDFTLTISSLQPEDFATYYCQQYYIPHTFGQGTKLEIK",0.04,0.05,0.05,0.84,0.24,0.65,
"1202/1203 (antibody, V domains shown) VH: EVQLLESGGGLVQPGGSLRLSCAASGFTFYGSSMSWVRQAPGKGLEWVSSIYYGSSGTYYADSVKGRFTISRDNSKNTLYLQMNSLRAEDTAVYYCARSYYGYFDYWGQGTLVTVSS VL: DIQMTQSPSSLSASVGDRVTITCRASQSISSYLNWYQQKPGKAPKLLIYAASSLQSGVPSRFSGSGSGTDFTLTISSLQPEDFATYYCQQYYTVVPFTFGQGTKLEIK",0.05,0.05,0.06,0.51,0.26,0.65,
"1204/1205 (antibody, V domains shown) VH: EVQLLESGGGLVQPGGSLRLSCAASGFTFSSYYMGWVRQAPGKGLEWVSGIGSYYGYTGYADSVKGRFTISRDNSKNTLYLQMNSLRAEDTAVYYCARAYYDYNYYYAYFDYWGQGTLVTVSS VL: DIQMTQSPSSLSASVGDRVTITCRASQSISSYLNWYQQKPGKAPKLLIYAASSLQSGVPSRFSGSGSGTDFTLTISSLQPEDFATYYCQQSVPHYPFTFGQGTKLEIK",0.11,0.07,0.13,0.73,0.28,0.85,
"1620/1621 (antibody, V domains shown) VH: EVQLLESGGGLVQPGGSLRLSCAASGFTFSGYYMYWVRQAPGKGLEWVSGISSSGSYTYYADSVKGRFTISRDNSKNTLYLQMNSLRAEDTAVYYCARSVGPYFDYWGQGTLVTVSS VL: DIQMTQSPSSLSASVGDRVTITCRASQSISSYLNWYQQKPGKAPKLLIYAASSLQSGVPSRFSGSGSGTDFTLTISSLQPEDFATYYCQQGVGPYTFGQGTKLEIK",0.33,0.17,0.18,0.17,0.32,0.17,
"1626/1627 (antibody, V domains shown) VH: EVQLLESGGGLVQPGGSLRLSCAASGFTFGGYSMYWVRQAPGKGLEWVSSIGGYYYSTYYADSVKGRFTISRDNSKNTLYLQMNSLRAEDTAVYYCARSYYGSIDYWGQGTLVTVSS VL: DIQMTQSPSSLSASVGDRVTITCRASQSISSYLNWYQQKPGKAPKLLIYAASSLQSGVPSRFSGSGSGTDFTLTISSLQPEDFATYYCQQGTGYGPLTFGQGTKLEIK",0.11,0.1,0.11,0.12,0.29,0.14,
"1214/1215 (antibody, V domains shown) VH: EVQLLESGGGLVQPGGSLRLSCAASGFTFSSYAMSWVRQAPGKGLEWVSSIGSGGGYTGYADSVKGRFTISRDNSKNTLYLQMNSLRAEDTAVYYCARVGHPFDYWGQGTLVTVSS VL: DIQMTQSPSSLSASVGDRVTITCRASQSISSYLNWYQQKPGKAPKLLIYAASSLQSGVPSRFSGSGSGTDFTLTISSLQPEDFATYYCQQDAYPHTFGQGTKLEIK",,,,,,,relative MFI normalized to full-length human CD137 [14]: 0.07; relative MFI normalized to full-length human CD137 [15]: 0.06; relative MFI normalized to full-length human CD137 [16]: 0.32; relative MFI normalized to full-length human CD137 [17]: 0.26; relative MFI normalized to full-length human CD137 [18]: 0.3; relative MFI normalized to full-length human CD137 [19]: 0.41; relative MFI normalized to full-length human CD137 [20]: 0.15; relative MFI normalized to full-length human CD137 [21]: 0.14; relative MFI normalized to full-length human CD137 [22]: 0.13; relative MFI normalized to full-length human CD137 [23]: 0.15; relative MFI normalized to full-length human CD137 [24]: 0.45; relative MFI normalized to full-length human CD137 [25]: 0.15

# Reference: patent US20220213213A1
